{"source": "paper PMC3946280", "about": "“Crystal Structures of the Novel Cytosolic 5′-Nucleotidase IIIB Explain Its Preference for m^7GMP” (PLoS ONE, 2014)", "molecules": {"B1": {"name": "DmcN-IIIB (Drosophila melanogaster) (protein)", "chain": "MGFDEKREPTGGRLRLQDIPALTQDHCRMRDPAEVERIINEFVIGGPERMQIVSDFDYTITKQRTEDGGAVPSSFGIFNACQSLPENFKAETDKLYHKYRPIEIDPHMPIAEKVQYMIEWWTKSGELTSGFPFDQSEIDQIASKYTHALRDRTHEFFADLQRLGIPTLVFSAGLGNSVVSVLRQANVLHPNVKVVSNFLQFRDGLLDGFQQPMIHTFNKNETVLNETSEYYDLVHTRDHIIVMGDSIGDADMASGVPASSHIMKIGFLFDHVEANMKKYMDTFDIVLVDDQTMDVPRTLLSLIEKQHKLNLEAPKQSSL", "notes": "full length 1-319; His6-SUMO fusion from pET-SUMOadapt in E. coli Rosetta 2(DE3), tag cleaved (stated for crystallization)"}, "B2": {"name": "DmcN-IIIB (Drosophila melanogaster; G76N/W121Y) (protein)", "chain": "B1 chain with G76N, W121Y", "notes": "as for B1"}, "B3": {"name": "DmcN-IIIB (Drosophila melanogaster; F75H/W121Y) (protein)", "chain": "B1 chain with F75H, W121Y", "notes": "as for B1"}, "B4": {"name": "DmcN-IIIB (Drosophila melanogaster; F75H) (protein)", "chain": "B1 chain with F75H", "notes": "as for B1"}, "B5": {"name": "DmcN-IIIB (Drosophila melanogaster; W121Y) (protein)", "chain": "B1 chain with W121Y", "notes": "as for B1"}, "B6": {"name": "DmcN-IIIB (Drosophila melanogaster; G76N) (protein)", "chain": "B1 chain with G76N", "notes": "as for B1"}, "B7": {"name": "DmcN-IIIB (Drosophila melanogaster; F75H/G76N/W121Y) (protein)", "chain": "B1 chain with F75H, G76N, W121Y", "notes": "as for B1"}, "B8": {"name": "HscN-IIIB (Homo sapiens) (protein)", "chain": "MAEEVSTLMKATVLMRQPGRVQEIVGALRKGGGDRLQVISDFDMTLSRFAYNGKRCPSSYNILDNSKIISEECRKELTALLHHYYPIEIDPHRTVKEKLPHMVEWWTKAHNLLCQQKIQKFQIAQVVRESNAMLREGYKTFFNTLYHNNIPLFIFSAGIGDILEEIIRQMKVFHPNIHIVSNYMDFNEDGFLQGFKGQLIHTYNKNSSACENSGYFQQLEGKTNVILLGDSIGDLTMADGVPGVQNILKIGFLNDKVEERRERYMDSYDIVLEKDETLDVVNGLLQHILCQGVQLEMQGP"}}, "key": {"HscN-IIIA": {"target": "T1, HscN-IIIA (Homo sapiens, UniProt Q9H0P0)", "T1 construct": "gene NT5C3A", "conditions": "37 °C; preincubated with 5 mM DTT"}, "DmcN-IIIB [1]": {"target": "T2, DmcN-IIIB (Drosophila melanogaster, UniProt Q9W197)", "T2 construct": "gene cN-IIIB; full length 1-319; His6-SUMO fusion from pET-SUMOadapt in E. coli Rosetta 2(DE3), tag cleaved (stated for crystallization)", "T2 sequence (Q9W197 1-319)": "B1 chain", "assay": "X-ray crystal structure, […] Å", "assay_type": "binding", "conditions": "co-crystallized with MgF3− and Mg2+; pH 7.5; active site"}, "DmcN-IIIB [2]": {"target": "T2, DmcN-IIIB", "assay": "X-ray crystal structure, […] Å", "assay_type": "binding", "conditions": "co-crystallized, no MgF3− density; pH 7.5; active site"}, "[3]": {"substrate": "Nc1ccn([C@@H]2O[C@H](COP(=O)(O)O)[C@@H](O)[C@H]2O)c(=O)n1", "assay": "colorimetric malachite green phosphate assay", "assay_type": "biochemical, Drosophila melanogaster", "conditions": "25 °C"}, "[4]": {"substrate": "C[n+]1cn([C@@H]2O[C@H](COP(=O)(O)O)[C@@H](O)[C@H]2O)c2nc(N)[nH]c(=O)c21", "assay": "colorimetric malachite green phosphate assay", "assay_type": "biochemical, Drosophila melanogaster", "conditions": "25 °C"}, "[5]": {"substrate": "C[n+]1cn([C@@H]2O[C@H](COP(=O)(O)O)[C@@H](O)[C@H]2O)c2nc(N)[nH]c(=O)c21", "assay": "colorimetric malachite green phosphate assay", "assay_type": "biochemical, Homo sapiens", "conditions": "37 °C, preincubated with 5 mM DTT"}, "purified protein": {"substrate": "Nc1ccn([C@@H]2O[C@H](COP(=O)(O)O)[C@@H](O)[C@H]2O)c(=O)n1", "assay": "purified protein", "conditions": "37 °C, preincubated with 5 mM DTT"}}, "note": "Numbering of substitutions follows the chain as printed. Numbers in names are those of the source.", "data": [{"molecule": "Nc1ccn([C@@H]2O[C@H](COP(=O)(O)O)[C@@H](O)[C@H]2O)c(=O)n1", "note": "[CMP]", "values": [{"measurement": "Km", "setting": "HscN-IIIA", "result": 80, "unit": "µM"}]}, {"molecule": "C[n+]1cn([C@@H]2O[C@H](COP(=O)(O)O)[C@@H](O)[C@H]2O)c2nc(N)[nH]c(=O)c21", "note": "[m^7GMP]", "values": [{"measurement": "Km", "setting": "HscN-IIIA", "result": 15, "unit": "µM"}]}, {"molecule": "C[n+]1cn([C@@H]2O[C@H](CO)[C@@H](O)[C@H]2O)c2nc(N)[nH]c(=O)c21", "note": "[7-methylguanosine]", "values": [{"measurement": "X-ray crystal structure, 1.65 Å", "setting": "DmcN-IIIB [1]", "result": "crystal structures of ^DmcN-IIIB bound to 7-methylguanosine or cytidine have been deposited"}]}, {"molecule": "Nc1ccn([C@@H]2O[C@H](CO)[C@@H](O)[C@H]2O)c(=O)n1", "note": "[cytidine]", "values": [{"measurement": "X-ray crystal structure, 2.05 Å", "setting": "DmcN-IIIB [2]", "result": "crystal structures of ^DmcN-IIIB bound to 7-methylguanosine or cytidine have been deposited"}]}, {"molecule": "B1", "values": [{"measurement": "Km", "setting": "[3]", "result": 48, "unit": "µM"}, {"measurement": "kcat", "setting": "[3]", "result": 12, "unit": "s⁻¹"}, {"measurement": "kcat/Km", "setting": "[3]", "result": 242000, "unit": "M⁻¹ s⁻¹"}, {"measurement": "Km", "setting": "[4]", "result": 12, "unit": "µM"}, {"measurement": "kcat", "setting": "[4]", "result": 4.8, "unit": "s⁻¹"}, {"measurement": "kcat/Km", "setting": "[4]", "result": 403000, "unit": "M⁻¹ s⁻¹"}]}, {"molecule": "B2", "values": [{"measurement": "Km", "setting": "[4]; variant FNWY", "result": 8, "unit": "µM"}, {"measurement": "kcat", "setting": "[4]; variant FNWY", "result": 0.3, "unit": "s⁻¹"}, {"measurement": "kcat/Km", "setting": "[4]; variant FNWY", "result": 37800, "unit": "M⁻¹ s⁻¹"}]}, {"molecule": "B3", "values": [{"measurement": "Km", "setting": "[3]; variant HGWY", "result": 93, "unit": "µM"}, {"measurement": "kcat", "setting": "[3]; variant HGWY", "result": 3, "unit": "s⁻¹"}, {"measurement": "kcat/Km", "setting": "[3]; variant HGWY", "result": 32500, "unit": "M⁻¹ s⁻¹"}, {"measurement": "Km", "setting": "[4]; variant HGWY", "result": 2, "unit": "µM"}, {"measurement": "kcat", "setting": "[4]; variant HGWY", "result": 1.5, "unit": "s⁻¹"}, {"measurement": "kcat/Km", "setting": "[4]; variant HGWY", "result": 755000, "unit": "M⁻¹ s⁻¹"}]}, {"molecule": "B4", "values": [{"measurement": "Km", "setting": "[3]; variant HGWW", "result": 490, "unit": "µM"}, {"measurement": "kcat", "setting": "[3]; variant HGWW", "result": 8, "unit": "s⁻¹"}, {"measurement": "kcat/Km", "setting": "[3]; variant HGWW", "result": 16000, "unit": "M⁻¹ s⁻¹"}, {"measurement": "Km", "setting": "[4]; variant HGWW", "result": 40, "unit": "µM"}, {"measurement": "kcat", "setting": "[4]; variant HGWW", "result": 4.2, "unit": "s⁻¹"}, {"measurement": "kcat/Km", "setting": "[4]; variant HGWW", "result": 106000, "unit": "M⁻¹ s⁻¹"}]}, {"molecule": "B5", "values": [{"measurement": "Km", "setting": "[3]; variant FGWY", "result": 14, "unit": "µM"}, {"measurement": "kcat", "setting": "[3]; variant FGWY", "result": 6, "unit": "s⁻¹"}, {"measurement": "kcat/Km", "setting": "[3]; variant FGWY", "result": 410000, "unit": "M⁻¹ s⁻¹"}]}, {"molecule": "B6", "values": [{"measurement": "Km", "setting": "[3]; variant FNWW", "result": 51, "unit": "µM"}, {"measurement": "kcat", "setting": "[3]; variant FNWW", "result": 8, "unit": "s⁻¹"}, {"measurement": "kcat/Km", "setting": "[3]; variant FNWW", "result": 166000, "unit": "M⁻¹ s⁻¹"}, {"measurement": "Km", "setting": "[4]; variant FNWW", "result": 2, "unit": "µM"}, {"measurement": "kcat", "setting": "[4]; variant FNWW", "result": 1.1, "unit": "s⁻¹"}, {"measurement": "kcat/Km", "setting": "[4]; variant FNWW", "result": 545000, "unit": "M⁻¹ s⁻¹"}]}, {"molecule": "B7", "values": [{"measurement": "Km", "setting": "[3]; variant HNWY", "result": 315, "unit": "µM"}, {"measurement": "kcat", "setting": "[3]; variant HNWY", "result": 9, "unit": "s⁻¹"}, {"measurement": "kcat/Km", "setting": "[3]; variant HNWY", "result": 28800, "unit": "M⁻¹ s⁻¹"}, {"measurement": "Km", "setting": "[4]; variant HNWY", "result": 11, "unit": "µM"}, {"measurement": "kcat", "setting": "[4]; variant HNWY", "result": 0.5, "unit": "s⁻¹"}, {"measurement": "kcat/Km", "setting": "[4]; variant HNWY", "result": 49500, "unit": "M⁻¹ s⁻¹"}]}, {"molecule": "B8", "values": [{"measurement": "Km", "setting": "[5]", "result": 8, "unit": "µM"}, {"measurement": "kcat", "setting": "[5]", "result": 0.5, "unit": "s⁻¹"}, {"measurement": "kcat/Km", "setting": "[5]", "result": 64500, "unit": "M⁻¹ s⁻¹"}, {"measurement": "Km", "setting": "purified protein", "result": 79, "unit": "µM"}, {"measurement": "kcat", "setting": "purified protein", "result": 7, "unit": "s⁻¹"}, {"measurement": "kcat/Km", "setting": "purified protein", "result": 87100, "unit": "M⁻¹ s⁻¹"}]}]}
